B1: recombinant human glucocerebrosidase produced in baculovirus expression system (SF9 cells), culture media enzyme (Homo sapiens) (protein)
chain: ARPCIPKSFGYSSVVCVCNATYCDSFDPPTFPALGTFSRYESTRSGRRMELSMGPIQANHTGTGLLLTLQPEQKFQKVKGFGGAMTDAAALNILALSPPAQNLLLKSYFSEEGIGYNIIRVPMASCDFSIRTYTYADTPDDFQLHNFSLPEEDTKLKIPLIHRALQLAQRPVSLLASPWTSPTWLKTNGAVNGKGSLKGQPGDIYHQTWARYFVKFLDAYAEHKLQFWAVTAENEPSAGLLSGYPFQCLGFTPEHQRDFIARDLGPTLANSTHHNVRLLMLDDQRLLLPHWAKVVLTDPEAAKYVHGIAVHWYLDFLAPAKATLGETHRLFPNTMLFASEACVGSKFWEQSVRLGSWDRGMQYSHSIITNLLYHVVGWTDWNLALNPEGGPNWVRNFVDSPIIVDITKDTFYKQPMFYHLGHFSKFIPEGSQRVGLVASQKNDLDAVALMHPDGSAVVVVLNRSSKDVPLTIKDPAVGFLETISPGYSIHTYLWRRQ
notes: made in house; host or cells: Spodoptera frugiperda SF9 cells, recombinant baculovirus (AcNPV, pAc373/GC)
B2: recombinant human glucocerebrosidase produced in baculovirus expression system (SF9 cells), cell pellet enzyme (Homo sapiens) (protein)
chain: B1 chain

Key:
[1] = substrate: Cc1cc(=O)oc2cc(O[C@@H]3O[C@H](CO)[C@@H](O)[C@H](O)[C@H]3O)ccc12; assay: purified protein, by the assay type; assay type: biochemical, human; conditions: other: recombinant enzyme in the media, pH 5.9, 100 mM potassium phosphate, 0.15% Triton X-100, 0.125% sodium taurocholate, 37.0 °C
Description: For pH profile and inhibition studies, glucocerebrosidase activity was measured using 100 mM potassium phosphate buffer containing 0.15% Triton X-100, 2.5 μl of β-D-[1-^14 C] glucocerebroside (7.5 mg/ml in sodium taurocholate at 50 mg/ml), and the sample in the total volume of 200 ul. Preincubations with conduritol-B-epoxide were for 30 min at 37° C. […] Purification of recombinant glucocerebrosidase was also monitored using 4MUGP.

[2] = substrate: Cc1cc(=O)oc2cc(O[C@@H]3O[C@H](CO)[C@@H](O)[C@H](O)[C@H]3O)ccc12; assay: purified protein, by the assay type; conditions: other: recombinant enzyme in the cell pellet, pH 5.9, 100 mM potassium phosphate, 0.15% Triton X-100, 0.125% sodium taurocholate, 37.0 °C

Row | Protein | Km [1] [mM] | Km [2] [mM]
1 | B1 | 3.3 | 
2 | B2 |  | 3.6
